According to patent US20220041746A1 (Sanofi, published 2022):
Where “and” joins values, the source holds several entries; their conditions need not be identical. Equal entries are not always repeated. Where two headings read alike, the source gives them in different places.

How the values were obtained:
[1] = molecular target: human CD28 (Cambridge Biologics LLC Cat 03-01-0303) (human, UniProt P10747 19-152); experiment: ELISA on coated hCD28 IgG4
Protocol: The binding properties of the purified antibodies were analyzed either using ELISA or SPR methods. For ELISA, corresponding antigens for each binding site in the trispecific binding protein were used to coat a 96-well Immuno Plate (Nunc 439454, Thermo Fisher Scientific) overnight at 4° C. using 2 μg/ml each antigen m PBS(pH7.4). The coated plate was blocked using 5% skim milk 12% BSA in PBS for one hour at RT, followed by washing with PBS+[…] three times (Aqua Max 400, Molecular Devices). Serial dilution of antibodies (trispecific and control Abs) were prepared and added onto the ELISA plates (100 μl/well in duplicate), incubated at RT for one hour, followed by washing 5 times with PBS+0.25% Tween 20.
The reaction was terminated by adding 50 μl 1M H₂SO₄, and OD₄₅₀ was measured using SpectraMax M5 (Molecular Devices) and analyzed using SoltMax Pro6.3 software (Molecular Devices). The final data was transferred to GraphPad Prism software (GraphPad Software, CA. USA), and plotted as shown. EC50 was calculated using the same software.

[2] = molecular target: human CD28 (SPR of Example 4) (human, UniProt P10747 19-152, limits assumed); experiment: SPR; KD rounded to an integer; first value of the pair, taken for CD3mid
[3] = molecular target: T1, recombinant human CD38 (SPR of Example 4) (human, UniProt P28907 45-300, limits assumed); experiment: as above
[4] = molecular target: T2, human CD38 expressed on the cell surface (human, UniProt P28907 1-300); experiment: flow cytometry on PréB hCD38 cells
T2 construct: whole, on cells; also called hCD38-expressing cells; huCD38
Protocol: (§1) The recombinant cell line was described by J. Deckket et al. 2014 Clin. Cancer Res 20:4574-4583. […] Antibody binding was evaluated after centrifugation and resuspension of cells by adding 200 μl/well PBS 1% BSA and read using Guava® easyCyte™ 8HT Flow Cytometry System. Apparent KD and EC50 values were estimated using BIOST®T-BINDING and BIOST®T-SPEED software, respectively.

[5] = molecular target: T1, recombinant human CD38 (SPR of Example …); experiment: SPR (column 'KD value against rec. protein by SPR (nM)'); first value of the pair, taken for CD3mid
[6] = molecular target: T2, human CD38 expressed on the cell surface; experiment: flow cytometry, 'Apparent KD value against rec. cells by FACS (nM)'; single value of the mid/low row, equal to the EC50 of the CD3mid protein in FIG. 6C
Protocol: as §1

[7] = molecular target: T3, cynomolgus monkey CD38 expressed on the cell surface (cynomolgus monkey, UniProt Q5VAN0 1-301); experiment: flow cytometry on preB::300.19 cells
T3 construct: whole, on cells; also called cCD38-expressing cells

[8] = molecular target: T2, human CD38 expressed on the cell surface; experiment: flow cytometry on preB::300.19 cells
[9] = molecular target: T3, cynomolgus monkey CD38 expressed on the …; experiment: flow cytometry on PréB cCD38 cells
Protocol: as §1

[10] = molecular target: T4, hCD38-his (SEQ ID NO: 2) (human, UniProt P28907 45-300); experiment: ELISA (column ELISA EC50 nM, hu)
T4 construct: His-tagged soluble protein derived from isoform A; also called human CD38-histag; hCD38::Histag

[11] = molecular target: T3, cynomolgus monkey CD38 expressed on the …; experiment: flow cytometry (FACS) on 300.19 PreB cynoCD38 cells [Cont.]
Protocol: as §1, with “Clin” for “Clin.”, “μL/well” for “μl/well”, “easvCyte™” for “easyCyte™”, “BIOST@T-BINDING” for “BIOST®T-BINDING”, “BIOST@T-SPEED” for “BIOST®T-SPEED”

[12] = molecular target: T5, CD38 isoform E (SEQ ID NO:105) (human, UniProt P28907 45-195, limits assumed); experiment: ELISA, plate coated with the CD38 isoform
T5 construct: also called huCD38 isoform E
Protocol: (§2) 96-well plates were coated with either isoform at 0.5 μg/well in PBS and 100 μL/well of antibodies were added to the plate. The plate was incubated at 37° C. for 1 h and washed five times with PBS containing 0.05% Tween-20 (PBS-T). […] Following incubation at 37° C. for 1 h in darkness, plates were washed with PBS-T five times. Antibody binding w as visualized by adding TMB-H2O2 buffer and read at a wavelength of 450 nm. EC50 values were estimated using BIOST@T-SPEED software.

[13] = molecular target: T6, CD38 isoform A (SEQ ID NO:1) (human, UniProt P28907 45-300); experiment: ELISA, plate coated with the CD38 isoform
T6 construct: also called huCD38 isoform A
Protocol: as §2

[14] = molecular target: T2, human CD38 expressed on the cell surface; experiment: flow cytometry (FACS) on 300.19 PreB hCD38 cells
Protocol: as §1, with “Clin” for “Clin.”, “μL/well” for “μl/well”, “easvCyte™” for “easyCyte™”, “BIOST@T-BINDING” for “BIOST®T-BINDING”, “BIOST@T-SPEED” for “BIOST®T-SPEED”

[15] = molecular target: T4, hCD38-his (SEQ ID NO: 2); experiment: ELISA on hCD38::Histag
[16] = molecular target: T3, cynomolgus monkey CD38 expressed on the …; experiment: flow cytometry (column FACS EC50 nM, cyno)
Protocol: as §1, with “Clin” for “Clin.”, “μL/well” for “μl/well”, “easvCyte™” for “easyCyte™”, “BIOST@T-BINDING” for “BIOST®T-BINDING”, “BIOST@T-SPEED” for “BIOST®T-SPEED”

[17] = molecular target: T7, cCD38-his (SEQ ID NO: 4) (cynomolgus monkey, UniProt Q5VAN0 46-301); experiment: ELISA on cynoCD38::Histag [Cont.]
T7 construct: His-tagged soluble protein; also called cyno CD38-histag; cynoCD38::Histag

[18] = molecular target: T2, human CD38 expressed on the cell surface; experiment: flow cytometry (column FACS EC50 nM, hu)
Protocol: as §1, with “Clin” for “Clin.”, “μL/well” for “μl/well”, “easvCyte™” for “easyCyte™”, “BIOST@T-BINDING” for “BIOST®T-BINDING”, “BIOST@T-SPEED” for “BIOST®T-SPEED”

[19] = molecular target: T7, cCD38-his (SEQ ID NO: 4); experiment: ELISA (column ELISA EC50 nM, cyno)
[20] = molecular target: T3, cynomolgus monkey CD38 expressed on the …; experiment: flow cytometry on preB::300.19 cells, apparent KD
Protocol: as §1

[21] = molecular target: T2, human CD38 expressed on the cell surface; experiment: flow cytometry on preB::300.19 cells, apparent KD
Protocol: as §1

[22] = molecular target: T3, cynomolgus monkey CD38 expressed on the …; experiment: flow cytometry on preB::300.19 cells, apparent KD; remark: listed apart in the source
Protocol: as §1, with “Clin” for “Clin.”, “μL/well” for “μl/well”, “easvCyte™” for “easyCyte™”, “BIOST@T-BINDING” for “BIOST®T-BINDING”, “BIOST@T-SPEED” for “BIOST®T-SPEED”

[23] = molecular target: T2, human CD38 expressed on the cell surface; experiment: flow cytometry on preB::300.19 cells, apparent KD; remark: listed apart in the source
Protocol: as §1, with “Clin” for “Clin.”, “μL/well” for “μl/well”, “easvCyte™” for “easyCyte™”, “BIOST@T-BINDING” for “BIOST®T-BINDING”, “BIOST@T-SPEED” for “BIOST®T-SPEED”

[24] = molecular target: T4, hCD38-his (SEQ ID NO: 2); experiment: SPR, mAb captured via anti-human Fc, soluble CD38-his injected
Protocol: (§3) The binding properties of the anti-huCD38 mabs were evaluated using a BIAcore 2000 (BIAcore Inc., Uppsala, Ni). […] The surface was regenerated between injections using 30 μL of 50 mM NaOH-1 M NaCl. Individual sensorgrams wore analyzed using BIAsimulation software.

[25] = molecular target: T7, cCD38-his (SEQ ID NO: 4); experiment: as above
Protocol: as §3

[26] = molecular target: T4, hCD38-his (SEQ ID NO: 2); experiment: ELISA on hCD38::Histag; remark: listed apart in the source
[27] = molecular target: T7, cCD38-his (SEQ ID NO: 4); experiment: ELISA on cynoCD38::Histag [Cont.]; remark: listed apart in the source

Row | EC50 [4] | EC50 [9] | EC50 [10] [nM] | EC50 [11] | EC50 [14] | EC50 [16] [nM] | EC50 [18] [nM] | EC50 [19] [nM] | Kd [22] [nM] | Kd [23] [nM] | Kd [24] [nM] | koff [24] [s⁻¹] | Kd [25] [nM] | koff [25] [s⁻¹] | Binder | also measured
1 |  |  |  |  |  |  |  |  |  |  |  |  |  |  | Control CD38xCD3 antibody (bispecific antibody, also called benchmark control CD38×CD3 bispecific antibody) benchmark heavy chain 1 (binds CD38): EVQLVESGGGLVQPGGSLRLSCAASGFTFSYSWMNWVRQAPGKGLEWVSEINPQSSTINYATSVKGRFTISRDNSKNTLYLQMNSLRAEDTAVYYCARYGNWFPYWGQGTLVTVSSASTKGPSVFPLAPSSKSTSGGTAALGCLVKDYFPEPVTVSWNSGALTSGVHTFPAVLQSSGLYSLSSVVTVPSSSLGTQTYICNVNHKPSDTKVDKKVEPKSCDKTHTCPPCPAPPVAGPSVFLFPPKPKDTLMISRTPEVTCVVVDVKHEDPEVKFNWYVDGVEVHNAKTKPREEEYNSTYRVVSVLTVLHQDWLNGKEYKCKVSNKALPAPIEKTISKAKGQPREPQVYTLPPSREEMTKNQVSLTCDVSGFYPSDIAVEWESDGQPENNYKTTPPVLDSDGSFFLYSKLTVDKSRWEQGDVFSCSVMHEALHNHYTQKSLSLSPGK benchmark heavy chain 2 (binds CD3): not shown benchmark light chain (binds CD38): DIVMTQSPSSLSASVGDRVTITCRASQNVDTWVAWYQQKPGQSPKALIYSASYRYSGVPDRFTGSGSGTDFTLTISSLQPEDFATYFCQQYDSYPLTFGGGTKLEIKRTVAAPSVFIFPPSDEQLKSGTASVVCLLNNFYPREAKVQWKVDNALQSGNSQESVTEQDSKDSTYSLSSTLTLSKADYEKHKVYACEVTHQGLSSPVTKSFNRGEC | binding result [1]: no binding (tested: 10^4 pM)
2 | 4.4 nM and 0.663 µg/mL | 7.5 nM and 1.12 µg/mL |  |  |  |  |  |  |  |  |  |  |  |  | CD38VH1×CD28cvn×CD3mid IgG4 (other, also called CD38VH1×CD28evn×CD3mid; CD38VH1 × CD28cyn × CD3mid IgG4) VH 1: QVQLVQSGAEVVKPGASVKVSCKASGYTFTSYAMHWVKEAPGQRLEWIGYIYPGQGGTNYNQKFQGRATLTADTSASTAYMELSSLRSEDTAVYFCARTGGLRRAYFTYWGQGTLVTVSS VL 1: DIVLTQSPATLSLSPGERATISCRASQSVSSYGQGFMHWYQQKPGQPPRLLIYGASSRATGIPARFSGSGSGTDFTLTISPLEPEDFAVYYCQQNKEDPWTFGGGTKLEIK VH 2: QVQLQESGPGLVKPSQTLSLTCTVSGFSLSDYGVHWVRQPPGKGLEWLGVIWAGGGTNYNPSLKSRKTISKDTSKNQVSLKLSSVTAADTAVYYCARDKGYSYYYSMDYWGQGTTVTVSS VL 2: DIVLTQSPASLAVSPGQRATITCRASESVEYYVTSLMQWYQQKPGQPPKLLIFAASNVESGVPARFSGSGSGTDFTLTINPVEANDVANYYCQQSRKVPYTFGQGTKLEIK VH 3: QVQLVESGGGVVQPGRSLRLSCAASGFTFTKAWMHWVRQAPGKQLEWVAQIKDKSNSYATYYADSVKGRFTISRDDSKNTLYLQMNSLRAEDTAVYYCRGVYYALSPFDYWGQGTLVTVSS VL 3: DIVMTQTPLSLSVTPGQPASISCKSSQSLVHNNANTYLSWYLQKPGQSPQSLIYKVSNRFSGVPDRFSGSGSGTDFTLKISRVEAEDVGVYYCGQGTQYPFTFGSGTKVEIK | Kd [2]: 18 nM; Kd [3]: 4 nM; Kd [5]: 4 nM; Kd [6]: 4.4 nM; fold lower apparent affinity than the parental mAb2 antibody [7]: 7.5 fold; fold lower apparent affinity than the parental mAb2 antibody [8]: 9 fold
3 | 0.5 nM and 0.0694 µg/mL | 1 nM and 0.147 µg/mL | 0.11 | 0.76 nM and 0.114 µg/mL | 0.33 nM | 0.76 | 0.33 | 0.1 | 0.75 | 0.33 | 0.332 | 0.00039 | 3.44 | 0.000784 | mAb2 (antibody, human IgG1, kappa, V domains shown, also called antiCD38_C2-CD38-1_VH1-VL1; CD38VH1) VH: QVQLVQSGAEVVKPGASVKVSCKASGYTFTSYAMHWVKEAPGQRLEWIGYIYPGQGGTNYNQKFQGRATLTADTSASTAYMELSSLRSEDTAVYFCARTGGLRRAYFTYWGQGTLVTVSS VL: DIVLTQSPATLSLSPGERATISCRASQSVSSYGQGFMHWYQQKPGQPPRLLIYGASSRATGIPARFSGSGSGTDFTLTISPLEPEDFAVYYCQQNKEDPWTFGGGTKLEIKR | EC50 [12]: 0.1 nM; EC50 [13]: 0.14 nM; EC50 [15]: 0.11 nM; EC50 [17]: 0.1 nM; Kd [20]: 1 nM; Kd [21]: 0.5 nM
4 |  |  | 0.14 | 1.06 nM and 0.16 µg/mL | 0.68 nM and 0.102 µg/mL | 1.06 | 0.68 | 0.14 | 1.07 | 0.68 | 0.312 | 0.000333 | 0.563 | 0.000125 | mAb5 (antibody, human IgG1, kappa, V domains shown, also called antiCD38_C2-CD38-1_VH6-VL3) VH: QVQLVQSGAEVVKPGASVKMSCKASGYTFTSFNMHWVKEAPGQRLEWIGYIYPGNGGTNYNQKFQGRATLTADTSASTAYMEISSLRSEDTAVYFCARTGGLRRAYFTYWGQGTLVTVSS VL: DIVLTQSPATLSLSPGERATISCRASESVDSYGNGFMHWYQQKPGQPPRLLIYLASSRATGIPARFSGSGSGTDFTLTISPLEPEDFAVYYCQQNKEDPWTFGGGTKLEIKR | EC50 [26]: 0.14 nM; EC50 [27]: 0.14 nM
